Test [1] has as its target huNav1.7α + β1-β2-β3 (human Nav1.7α co-expressed with Navβ1, Navβ2 and Navβ3) (human) (UniProt Q15858). As to the kind of experiment: FACS, CHO Flp-In cells; SD MFI 12. (In flow cytometry, cells or beads pass a laser one at a time.)
For test [2], the target named is huNav1.7α (human Nav1.7 alpha subunit, expressed without β subunits) (human) (UniProt Q15858). As to the kind of experiment: FACS, HEK293 cells; SD MFI 2.
For test [3], the target named is huNav1.7α + β1 (human Nav1.7α co-expressed with Navβ1) (human) (UniProt Q15858). As to the kind of experiment: FACS, HEK293 cells; SD MFI 6.

We go through 1 substance from patent publication US20240002497A1.

For Negative control (Table 33), the figures for the Mean MFI in test [1], in test [2] and in test [3] were 566 MFI, 723 MFI and 778 MFI, respectively.
